Patent US20250320284A1 (AC IMMUNE, published 2025)

T1: CARD domain of human ASC (human, UniProt Q9ULZ3 107-195)
T1 construct: biotinylated in BLI; also called hCARD; human CARD
T1 sequence: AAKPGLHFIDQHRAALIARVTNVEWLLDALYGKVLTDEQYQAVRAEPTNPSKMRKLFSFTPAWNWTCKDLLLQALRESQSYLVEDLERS

T2: mouse ASC (mouse, UniProt Q9EPB4 1-193)
T2 construct: recombinant mASC in ELISA and SPR; endogenous ASC of J774.A1 cells in Western blot and immunofluorescence; also called mASC
T2 sequence: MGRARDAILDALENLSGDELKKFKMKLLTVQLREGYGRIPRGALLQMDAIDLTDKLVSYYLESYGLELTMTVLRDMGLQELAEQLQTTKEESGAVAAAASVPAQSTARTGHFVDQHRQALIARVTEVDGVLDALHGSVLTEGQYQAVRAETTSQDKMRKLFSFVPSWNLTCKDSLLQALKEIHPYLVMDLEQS


What was measured:
[1] = target: T3, human ASC (apoptosis associated speck-like protein containing a caspase-recruitment domain) (human, UniProt Q9ULZ3 1-195); assay: SPR affinity mode, mAb captured;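 also: Single-cycle SPR kinetics with mAbs captured on goat anti-mouse antibody, double-referenced against blank flow cell and buffer cycle, fitted by a 1:1 kinetic model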
T3 construct: recombinant hASC in ELISA and SPR; endogenous ASC (cytoplasmic or specks) in Western blot and immunofluorescence; also called hASC; PYCARD

[2] = target: T3, human ASC (apoptosis associated …); assay: SPR avidity mode, ASC immobilized;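 also: Single-cycle SPR kinetics on Biacore T200, antibodies injected at 1.2–100 nM (3-fold steps), 300 s association, 900 s dissociation, double-referenced, 1:1 kinetic model fit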
[3] = target: T1, CARD domain of human ASC; assay: ELISA, coated hCARD
[4] = target: T4, PYD domain of human ASC (human, UniProt Q9ULZ3 1-91, limits assumed); assay: ELISA, coated hPYD;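 also: monoclonal antibody binding to plate-coated human ASC PYD measured by ELISA, with a phosphatase substrate absorbance read-out and EC50 from a variable slope curve fit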
T4 construct: biotinylated in BLI; His/MBP-tagged in the alanine ELISA; also called hPYD; human PYD

[5] = target: T3, human ASC (apoptosis associated …); assay: ELISA, coated hASC;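 also: antibody binding to plate-coated recombinant human ASC, read as phosphatase substrate absorbance, EC50 from four-parameter variable-slope fit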
[6] = target: T2, mouse ASC; assay: ELISA, coated mASC

T4 sequence (Q9ULZ3 1-91 limits assumed): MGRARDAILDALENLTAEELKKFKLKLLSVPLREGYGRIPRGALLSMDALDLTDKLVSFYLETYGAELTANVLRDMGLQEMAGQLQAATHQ

| Binder | Kd [1] | koff [1] | kon [1] | Kd [2] | koff [2] | kon [2] | binding result [3] | EC50 [4] | EC50 [5] | EC50 [3] | binding result [4] | binding result [6] |
| --- | --- | --- | --- | --- | --- | --- | --- | --- | --- | --- | --- | --- |
| ACI-8016-421B10C12D2-AB1 (antibody, V domains shown) VH: EVQLQQSGADLVKPGASVKLSCTASGFNIEDTYIHWVKQRPARGLEWVGRIDPANGNTDYDPKFQGKATMITDTSSNTVYLQVSSLTSEDTAVYFCGRHDGYDMDYWGQGTSVTVSS VL: DIVMSQSPSSLAVSAGEKVTMSCQSSQSLLNGRTRRNYLAWYQQKPGQSPKLLIYWASTRKSGVPDRFTGSGSGTDFTLTITSVQAEDLAVYYCKQSYNLVTFGAGTKLELK | 0.36 nM | 0.00017 s⁻¹ | 470000 M⁻¹ s⁻¹ | < 0.01 nM | 2.2e-07 s⁻¹ | 190000 M⁻¹ s⁻¹ | no binding | 0.07 nM | 0.06 nM |  |  |  |
| ACI-8016-402H11C9-Ab1 (antibody, V domains shown) VH: QVQLQQSGAELARPGASVKMSCKASGYTFTTYTMHWVKQRPGQGLEWIGYINPSSGYTYYNQNFKDKATLTADKSSSTAYMQLSNLASDDSAVYYCALGGNPAWFAYWGQGTLVTVSA VL: DIVLTQSPATLSVTPGDSVSLSCRASQSIGNNLHWYQHKSHESPRLLIKYASQSISGIPSRFSGSESGTDFTLSINSVETEDFGIYFCQQSKSWPWTFGGGTKLEIK | 0.55 nM | 0.00019 s⁻¹ | 360000 M⁻¹ s⁻¹ | 10.5 nM |  |  |  |  | 0.06 nM | 0.06 nM | no binding | no binding |
| ACI-8016-203G8B10-AB1 (antibody, V domains shown) VH: EVKLEESGGGLVHPGGSMKLSCVASGFTFSNYWMNWVRQSPEKGLEWVAQIRLKSENYATHSAESVKGRLTISRDDSKSSVYLQMNNLRAEDTGIYYCLAGWGLDYWGQGTTLTVSS VL: DIVMTQAAFSNPVTLGTSASISCRSSKTLLHSDGFTYLYWYLQRPGQSPQLLIHRVSNLASGVPNRFSGSESGTDFTLRISRVEPEDVGVYYCAQMLELPLTFGSGTKLELK | 1.34 nM | 0.00017 s⁻¹ | 130000 M⁻¹ s⁻¹ | 0.35 nM | 2.9e-05 s⁻¹ | 83000 M⁻¹ s⁻¹ | no binding | 0.08 nM | 0.09 nM |  |  | no binding |

Stronger by Kd [1], values ahead:

| Kd [1] | koff [1] | kon [1] | Kd [2] | koff [2] | kon [2] | binding result [3] | EC50 [4] | EC50 [5] | EC50 [3] | binding result [4] | binding result [6] | Binder |
| --- | --- | --- | --- | --- | --- | --- | --- | --- | --- | --- | --- | --- |
| 0.12 nM | 2.9e-05 s⁻¹ | 250000 M⁻¹ s⁻¹ | < 0.01 nM | 4.1e-07 s⁻¹ | 110000 M⁻¹ s⁻¹ | no binding | 0.06 nM | 0.07 nM |  |  |  | ACI-8016-417E12A8-AB1 (antibody, V domains shown) VH: QVQLQQPGAELVRPGASVILSCKASGYTFTSSWITWVKQRPGQGLEWIGNIYPSDSYTNSNQKFKDKATLTVDKSSSTAYMHLISPTSEDSAVYYCTRKDFVYDAWYFDVWGAGTTVTVSS VL: DIVMTQSQKFMSTSVGDRVTVTCKASQNVGTNVAWYQQRPGQSPKPLIYSASYRNSGVPDRFTGSGSGTDFTLTITNVQSEDLAEYFCQQYNNYPLTFGAGTKLELK |
| 0.11 nM | 1.5e-05 s⁻¹ | 130000 M⁻¹ s⁻¹ | < 0.01 nM | 5.6e-07 s⁻¹ | 110000 M⁻¹ s⁻¹ |  |  | 0.06 nM | 0.07 nM | no binding | no binding | ACI-8016-407E10A9-AB1 (antibody, V domains shown) VH: EVQLVESGGGFVKPGGSLKLSCAASGFTFSNYAMSWVRQTPEKRLEWVATIYSGGIFTYYPDSVKGRFTISRDSAKNTLYLQMTSLRSEDTAIYYCARLGGSYWGQGTLVTVSA VL: QAVVTQESALTTSPGETVTLTCRSSTGAVTTNNYANWVQEKPDHFFTGLIGGTDNRPPGVPARFSGSLIGDKAALTITGAQTEDEAIYFCALWYNNHWVFGGGTKLTVL |
